Consider eight molecules from US20220348632A1 (Novartis, published 2022).

In general, EC50 refers to the midpoint of the concentration-response curve. A low value points to an effect from little substance.

Experiment [1] deals with T1, mouse Rae-1ε over-expressed on CT26.WT cells (mouse, UniProt Q9CZQ6 29-225).
T1 construct: whole, on cells; also called mouse RAE-1 epsilon; Rae-1E
T1 sequence (looked up): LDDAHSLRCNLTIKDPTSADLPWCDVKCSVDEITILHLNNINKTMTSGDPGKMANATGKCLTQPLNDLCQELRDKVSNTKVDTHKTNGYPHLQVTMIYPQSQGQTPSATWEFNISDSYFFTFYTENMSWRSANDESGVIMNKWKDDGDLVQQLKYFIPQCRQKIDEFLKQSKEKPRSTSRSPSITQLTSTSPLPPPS
As to the kind of experiment: flow cytometry titration on CT26.WT cells over-expressing mouse Rae-1ε; R-PE anti-mouse Fc detection, mean R-PE fluorescence. On the procedure: (§1) A […] cell sorting (FACS) based binding assay against mouse NKG2D-ligands expressed at the cell surface was performed to characterize the binding of the dimeric mouse NKG2D-Fc variants fused either to N-terminus or to C-terminus of the Fc region with no peptide linker or with different peptide linker lengths (10, 20 or 30 amino acids).
(§2) Half maximal effective concentration (EC50) in nM was determined on two different engineered stable CT26.WT cell lines, over-expressing at their surface the recombinant ligands mouse Rae-1α and mouse Rae-1E. The cells were incubated with the different concentrations of protein in DPBS supplemented with 5% FCS and 0.04% NaN₃ (FACS buffer). […] For each sample, the mean of the resulting fluorescence of alive gated cells was extracted using the Cell Quest Pro software (BD Biosciences).
On the technique in general: In flow cytometry, cells or beads pass a laser one at a time.

For experiment [2], the target named is T2, mouse Rae-1α over-expressed on CT26.WT cells (mouse, UniProt O08602 29-229).
T2 construct: whole, on cells; also called mouse RAE-1alpha; Rae-1a
T2 sequence (looked up): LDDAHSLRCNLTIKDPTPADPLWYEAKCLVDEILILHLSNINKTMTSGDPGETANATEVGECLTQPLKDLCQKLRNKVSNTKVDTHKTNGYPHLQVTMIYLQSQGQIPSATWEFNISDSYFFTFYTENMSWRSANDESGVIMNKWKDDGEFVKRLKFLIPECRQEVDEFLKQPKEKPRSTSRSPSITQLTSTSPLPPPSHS
As to the kind of experiment: flow cytometry titration on CT26.WT cells over-expressing mouse Rae-1α; R-PE anti-mouse Fc detection, mean R-PE fluorescence. On the procedure:
as §1, §2

B1: MM6, mFc2-(G4S)2-mNKG2D (aa94-232)-RS(G3S)2-mNKG2D (aa94-232) (Fc fusion)
chain: ISAMVRSPRGPTIKPCPPCKCPAPNLLGGPSVFIFPPKIKDVLMISLSPIVTCVVVDVSEDDPDVQISWFVNNVEVHTAQTQTHREDYNSTLRVVSALPIQHQDWMSGKEFKCKVNNKDLPAPIERTISKPKGSVRAPQVYVLPPPEEEMTKKQVTLTCMVTDFMPEDIYVEWTNNGKTELNYKNTEPVLDSDGSYFMYSKLRVEKKNWVERNSYSCSVVHEGLHNHHTTKSFSRTPGKGGGGSGGGGSFQPVLCNKEVPVSSREGYCGPCPNNWICHRNNCYQFFNEEKTWNQSQASCLSQNSSLLKIYSKEEQDFLKLVKSYHWMGLVQIPANGSWQWEDGSSLSYNQLTLVEIPKGSCAVYGSSFKAYTEDCANLNTYICMKRAVRSGGGSGGGSFQPVLCNKEVPVSSREGYCGPCPNNWICHRNNCYQFFNEEKTWNQSQASCLSQNSSLLKIYSKEEQDFLKLVKSYHWMGLVQIPANGSWQWEDGSSLSYNQLTLVEIPKGSCAVYGSSFKAYTEDCANLNTYICMKRAV
notes: also called C-terminal, 10 aa linker
Take B1: the results for the EC50 in experiment [1] and in experiment [2] were 0.668 nM and 1.15 nM, respectively.

B2: MM2, mNKG2D (aa94-232)-RS(G3S)2-mNKG2D (aa94-232)-(G4S)2-mFc2 (Fc fusion)
chain: FQPVLCNKEVPVSSREGYCGPCPNNWICHRNNCYQFFNEEKTWNQSQASCLSQNSSLLKIYSKEEQDFLKLVKSYHWMGLVQIPANGSWQWEDGSSLSYNQLTLVEIPKGSCAVYGSSFKAYTEDCANLNTYICMKRAVRSGGGSGGGSFQPVLCNKEVPVSSREGYCGPCPNNWICHRNNCYQFFNEEKTWNQSQASCLSQNSSLLKIYSKEEQDFLKLVKSYHWMGLVQIPANGSWQWEDGSSLSYNQLTLVEIPKGSCAVYGSSFKAYTEDCANLNTYICMKRAVGGGGSGGGGSISAMVRSPRGPTIKPCPPCKCPAPNLLGGPSVFIFPPKIKDVLMISLSPIVTCVVVDVSEDDPDVQISWFVNNVEVHTAQTQTHREDYNSTLRVVSALPIQHQDWMSGKEFKCKVNNKDLPAPIERTISKPKGSVRAPQVYVLPPPEEEMTKKQVTLTCMVTDFMPEDIYVEWTNNGKTELNYKNTEPVLDSDGSYFMYSKLRVEKKNWVERNSYSCSVVHEGLHNHHTTKSFSRTPGK
notes: also called N-terminal, 10 aa linker
B2: the figures for the EC50 in experiment [1] and in experiment [2] were 1.87 nM and 1.27 nM, respectively.

B3: MM5, mFc2-mNKG2D (aa94-232)-RS(G3S)2-mNKG2D (aa94-232) (Fc fusion)
chain: ISAMVRSPRGPTIKPCPPCKCPAPNLLGGPSVFIFPPKIKDVLMISLSPIVTCVVVDVSEDDPDVQISWFVNNVEVHTAQTQTHREDYNSTLRVVSALPIQHQDWMSGKEFKCKVNNKDLPAPIERTISKPKGSVRAPQVYVLPPPEEEMTKKQVTLTCMVTDFMPEDIYVEWTNNGKTELNYKNTEPVLDSDGSYFMYSKLRVEKKNWVERNSYSCSVVHEGLHNHHTTKSFSRTPGKFQPVLCNKEVPVSSREGYCGPCPNNWICHRNNCYQFFNEEKTWNQSQASCLSQNSSLLKIYSKEEQDFLKLVKSYHWMGLVQIPANGSWQWEDGSSLSYNQLTLVEIPKGSCAVYGSSFKAYTEDCANLNTYICMKRAVRSGGGSGGGSFQPVLCNKEVPVSSREGYCGPCPNNWICHRNNCYQFFNEEKTWNQSQASCLSQNSSLLKIYSKEEQDFLKLVKSYHWMGLVQIPANGSWQWEDGSSLSYNQLTLVEIPKGSCAVYGSSFKAYTEDCANLNTYICMKRAV
notes: also called C-terminal, no linker
B3: the EC50 in experiment [1] is 3.02 nM; in experiment [2], 0.738 nM.

B4: MM1, mNKG2D (aa94-232)-RS(G3S)2-mNKG2D (aa94-232)-mFc2 (Fc fusion)
chain: FQPVLCNKEVPVSSREGYCGPCPNNWICHRNNCYQFFNEEKTWNQSQASCLSQNSSLLKIYSKEEQDFLKLVKSYHWMGLVQIPANGSWQWEDGSSLSYNQLTLVEIPKGSCAVYGSSFKAYTEDCANLNTYICMKRAVRSGGGSGGGSFQPVLCNKEVPVSSREGYCGPCPNNWICHRNNCYQFFNEEKTWNQSQASCLSQNSSLLKIYSKEEQDFLKLVKSYHWMGLVQIPANGSWQWEDGSSLSYNQLTLVEIPKGSCAVYGSSFKAYTEDCANLNTYICMKRAVISAMVRSPRGPTIKPCPPCKCPAPNLLGGPSVFIFPPKIKDVLMISLSPIVTCVVVDVSEDDPDVQISWFVNNVEVHTAQTQTHREDYNSTLRVVSALPIQHQDWMSGKEFKCKVNNKDLPAPIERTISKPKGSVRAPQVYVLPPPEEEMTKKQVTLTCMVTDFMPEDIYVEWTNNGKTELNYKNTEPVLDSDGSYFMYSKLRVEKKNWVERNSYSCSVVHEGLHNHHTTKSFSRTPGK
notes: also called mouse NKG2D-Fc surrogate construct, N-terminal, no linker
For the molecule B4, the EC50 in experiment [1] stood at 2.56 nM; in experiment [2], 1.05 nM.

B5: MM7, mFc2-(G4S)4-mNKG2D (aa94-232)-RS(G3S)2-mNKG2D (aa94-232) (Fc fusion)
chain: ISAMVRSPRGPTIKPCPPCKCPAPNLLGGPSVFIFPPKIKDVLMISLSPIVTCVVVDVSEDDPDVQISWFVNNVEVHTAQTQTHREDYNSTLRVVSALPIQHQDWMSGKEFKCKVNNKDLPAPIERTISKPKGSVRAPQVYVLPPPEEEMTKKQVTLTCMVTDFMPEDIYVEWTNNGKTELNYKNTEPVLDSDGSYFMYSKLRVEKKNWVERNSYSCSVVHEGLHNHHTTKSFSRTPGKGGGGSGGGGSGGGGSGGGGSFQPVLCNKEVPVSSREGYCGPCPNNWICHRNNCYQFFNEEKTWNQSQASCLSQNSSLLKIYSKEEQDFLKLVKSYHWMGLVQIPANGSWQWEDGSSLSYNQLTLVEIPKGSCAVYGSSFKAYTEDCANLNTYICMKRAVRSGGGSGGGSFQPVLCNKEVPVSSREGYCGPCPNNWICHRNNCYQFFNEEKTWNQSQASCLSQNSSLLKIYSKEEQDFLKLVKSYHWMGLVQIPANGSWQWEDGSSLSYNQLTLVEIPKGSCAVYGSSFKAYTEDCANLNTYICMKRAV
notes: also called C-terminal variant with a linker length of 20 aa
B5: the EC50 amounted to 1.5 nM in experiment [1] and 13 nM in experiment [2].

B6: MM4, mNKG2D (aa94-232)-RS(G3S)2-mNKG2D (aa94-232)-(G4S)6-mFc2 (Fc fusion)
chain: FQPVLCNKEVPVSSREGYCGPCPNNWICHRNNCYQFFNEEKTWNQSQASCLSQNSSLLKIYSKEEQDFLKLVKSYHWMGLVQIPANGSWQWEDGSSLSYNQLTLVEIPKGSCAVYGSSFKAYTEDCANLNTYICMKRAVRSGGGSGGGSFQPVLCNKEVPVSSREGYCGPCPNNWICHRNNCYQFFNEEKTWNQSQASCLSQNSSLLKIYSKEEQDFLKLVKSYHWMGLVQIPANGSWQWEDGSSLSYNQLTLVEIPKGSCAVYGSSFKAYTEDCANLNTYICMKRAVGGGGSGGGGSGGGGSGGGGSGGGGSGGGGSISAMVRSPRGPTIKPCPPCKCPAPNLLGGPSVFIFPPKIKDVLMISLSPIVTCVVVDVSEDDPDVQISWFVNNVEVHTAQTQTHREDYNSTLRVVSALPIQHQDWMSGKEFKCKVNNKDLPAPIERTISKPKGSVRAPQVYVLPPPEEEMTKKQVTLTCMVTDFMPEDIYVEWTNNGKTELNYKNTEPVLDSDGSYFMYSKLRVEKKNWVERNSYSCSVVHEGLHNHHTTKSFSRTPGK
notes: also called N-terminal, 30 aa linker
In the case of B6, the EC50 in experiment [1] is 1.65 nM; in experiment [2], 0.894 nM.

B7: MM8, mFc2-(G4S)6-mNKG2D (aa94-232)-RS(G3S)2-mNKG2D (aa94-232) (Fc fusion)
chain: ISAMVRSPRGPTIKPCPPCKCPAPNLLGGPSVFIFPPKIKDVLMISLSPIVTCVVVDVSEDDPDVQISWFVNNVEVHTAQTQTHREDYNSTLRVVSALPIQHQDWMSGKEFKCKVNNKDLPAPIERTISKPKGSVRAPQVYVLPPPEEEMTKKQVTLTCMVTDFMPEDIYVEWTNNGKTELNYKNTEPVLDSDGSYFMYSKLRVEKKNWVERNSYSCSVVHEGLHNHHTTKSFSRTPGKGGGGSGGGGSGGGGSGGGGSGGGGSGGGGSFQPVLCNKEVPVSSREGYCGPCPNNWICHRNNCYQFFNEEKTWNQSQASCLSQNSSLLKIYSKEEQDFLKLVKSYHWMGLVQIPANGSWQWEDGSSLSYNQLTLVEIPKGSCAVYGSSFKAYTEDCANLNTYICMKRAVRSGGGSGGGSFQPVLCNKEVPVSSREGYCGPCPNNWICHRNNCYQFFNEEKTWNQSQASCLSQNSSLLKIYSKEEQDFLKLVKSYHWMGLVQIPANGSWQWEDGSSLSYNQLTLVEIPKGSCAVYGSSFKAYTEDCANLNTYICMKRAV
notes: also called C-terminal variant with a linker length of 30 aa
As to B7, the values for the EC50 in experiment [1] and in experiment [2] were 0.624 nM and 15.6 nM, respectively.

B8: MM3, mNKG2D (aa94-232)-RS(G3S)2-mNKG2D (aa94-232)-(G4S)4-mFc2 (Fc fusion)
chain: FQPVLCNKEVPVSSREGYCGPCPNNWICHRNNCYQFFNEEKTWNQSQASCLSQNSSLLKIYSKEEQDFLKLVKSYHWMGLVQIPANGSWQWEDGSSLSYNQLTLVEIPKGSCAVYGSSFKAYTEDCANLNTYICMKRAVRSGGGSGGGSFQPVLCNKEVPVSSREGYCGPCPNNWICHRNNCYQFFNEEKTWNQSQASCLSQNSSLLKIYSKEEQDFLKLVKSYHWMGLVQIPANGSWQWEDGSSLSYNQLTLVEIPKGSCAVYGSSFKAYTEDCANLNTYICMKRAVGGGGSGGGGSGGGGSGGGGSISAMVRSPRGPTIKPCPPCKCPAPNLLGGPSVFIFPPKIKDVLMISLSPIVTCVVVDVSEDDPDVQISWFVNNVEVHTAQTQTHREDYNSTLRVVSALPIQHQDWMSGKEFKCKVNNKDLPAPIERTISKPKGSVRAPQVYVLPPPEEEMTKKQVTLTCMVTDFMPEDIYVEWTNNGKTELNYKNTEPVLDSDGSYFMYSKLRVEKKNWVERNSYSCSVVHEGLHNHHTTKSFSRTPGK
notes: also called N-terminal, 20 aa linker
B8: the EC50 was 1.99 nM in experiment [1] and 0.495 nM in experiment [2].
